Data taken from publication doi:10.1101/2021.08.09.455663.
pKd: −log10 of the molar value.

Tests used:
[1] = target: GST-tagged TgIST-R2 (Toxoplasma gondii); experiment: BLI
[2] = target: phosphorylated STAT1 dimer (pSTAT1d) (UniProt P42224); experiment: BLI

phosphorylated STAT1 dimer (pSTAT1d) (from UniProt P42224 132-713) (domain or fragment)
pKd [1]: 7.66

TgIST-R2 peptide after GST removal (domain or fragment)
pKd [2]: 6.48
